Laboratory results as given in patent US20210253725A1 (BIONTECH, published 2021).
Changes are numbered by the printed parent chain. In names and notes the source's numbering stands. Blank lines part the entries; values can stand above or below the binder they belong to.

Columns and labels:
[1] = target: T1, CD27 expressed on the cell surface (HT1080_CD27 cells) (human, UniProt P26842 20-260); assay: cell-based or functional assay
T1 sequence (looked up): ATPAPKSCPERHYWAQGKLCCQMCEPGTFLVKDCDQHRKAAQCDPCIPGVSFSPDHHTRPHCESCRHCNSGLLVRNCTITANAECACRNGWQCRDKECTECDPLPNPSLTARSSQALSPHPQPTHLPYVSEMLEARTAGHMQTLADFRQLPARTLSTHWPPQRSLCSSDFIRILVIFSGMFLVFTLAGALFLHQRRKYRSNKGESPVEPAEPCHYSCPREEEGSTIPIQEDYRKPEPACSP

[2] = target: T2, CD27 protein (His-tagged, Sino Biological Inc. 10039-H08B1) (human, UniProt P26842 20-192); assay: ELISA on coated His-tagged CD27
T2 construct: bought; coated onto ELISA plates; also called human CD27; recombinant protein; not shown: His tag
T2 sequence (looked up): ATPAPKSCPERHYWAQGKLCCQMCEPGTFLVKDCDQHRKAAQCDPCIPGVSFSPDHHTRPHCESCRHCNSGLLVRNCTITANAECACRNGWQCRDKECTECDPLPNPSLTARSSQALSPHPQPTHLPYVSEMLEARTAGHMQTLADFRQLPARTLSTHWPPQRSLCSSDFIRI

[3] = target: T1, CD27 expressed on the cell surface …; assay: cellular binding assay, HT1080_CD27 cells
Note: test concentration or dose not given here.

B1: P018.S.02.A.H05 (antibody, V domains shown)
VH: QSLEESGGDLVKPGASLTLTCTASGIDFSSSSMCWVRQAPGKGLEWIACIDTGSSGRTDYASWAKGRFTLSKTSATTVTLQMTSLTAADTATYFCTRYGDYAGYGYDSFDPWGPGTLVTVSS
VL: AQVLTQTPSSVSAAVGGTVTINCQASQNINNWCSWYQQKPGQPPKLLIAYASTLASGVSSRFKGSGSGTQFTLTISGVQSDDAATYYCQQTFDCTDVENVFGGGTEVVVK
notes: V regions on human Ig constant parts; also called AB27_40
IL-8, cross-linked by F(ab')2 fragment [abs. corr.] [1]: 1.4 abs. corr.
IL-8 [abs. corr.] [1]: 0.067 abs. corr.
ELISA [abs. corr.] [2]: 3.38 abs. corr.
Cellular binding assay [RFU] [3]: 252 RFU

B3: P018.S.02.A.C06 (antibody, V domains shown)
VH: QEQLEESGGGLVQPEGSLTLTCKASGIDFSSNYYISWVRQAPGKGLEWIGCIYTGSDDAAYYASWAKGRFTISKTSSTTVTLQMTSLTAADTATYFCAREILYPTNTDSFDLWGPGTLVTVSS
VL: AQVLTQTPSSVSEPVGGIVTINCQASESISSRLAWYQQKPGQPPKLLIYRAATLASGVPSRFKGSGSGTDFTLTISDLESADAATYYCQSYVGASSGGYFFGGGTEVVVK
notes: V regions on human Ig constant parts; also called AB27_32
IL-8, cross-linked by F(ab')2 fragment [abs. corr.] [1]: 1.59 abs. corr.
IL-8 [abs. corr.] [1]: 0.418 abs. corr.
ELISA [abs. corr.] [2]: 3.37 abs. corr.
Cellular binding assay [RFU] [3]: 348 RFU

B4: P018.S.07.A.H04 (antibody, V domains shown)
VH: QSLEESGGRLVTPGTPLTLTCTVSGLSLSSYDMSWVRQAPGKGLEWIGYIWSGGSTDYASWAKGRFTISKTSTTVDLKIISPTTEDTATYFCARGYVEFDLWGPGTLVTVSS
VL: DPVLTQTPPSVSAAVGGTVTINCQSSQSLYSNNYLSWYQQKAGQPPKVLIWPASSLASGVPSRFKGSASGTQFTLTISELQSDDAATYYCQGTFYDSGWLSAFGGGTEVVVK
notes: V regions on human Ig constant parts; also called AB27_132
IL-8, cross-linked by F(ab')2 fragment [abs. corr.] [1]: 1.86 abs. corr.
IL-8 [abs. corr.] [1]: 0.158 abs. corr.
ELISA [abs. corr.] [2]: 3.4 abs. corr.
Cellular binding assay [RFU] [3]: 386 RFU

B6: P018.S.07.A.B04 (antibody, V domains shown)
VH: QSVEESGGRLVTPGTPLTLTCTVSGFSLSSYDMIWVRQAPGKGLEWIGIIYLTDTTYYANWTKGRFTISKTSTTVDLKISSPTTEDTATYFCARHLDTSSGGFYFNLWGQGTLVTVSS
VL: AQVLTQTPSSVSAAVGGTVTINCQASQSVYNSKILAWYQQKPGRPPKLLIYDASTLASGVPSRFKGSGSGTQFTLTISGVQSDDAATYFCQGEFTCTSADCIAFGGGTEVVVK
notes: V regions on human Ig constant parts; also called AB27_116
IL-8, cross-linked by F(ab')2 fragment [abs. corr.] [1]: 1.67 abs. corr.
IL-8 [abs. corr.] [1]: 0.304 abs. corr.
ELISA [abs. corr.] [2]: 3.63 abs. corr.
Cellular binding assay [RFU] [3]: 382 RFU

Now from value to binder:

IL-8, cross-linked by F(ab')2 fragment [abs. corr.] [1]: 1.23 abs. corr.
IL-8 [abs. corr.] [1]: 0.211 abs. corr.
ELISA [abs. corr.] [2]: 3.59 abs. corr.
Cellular binding assay [RFU] [3]: 334 RFU
B2: P018.S.03.A.H04 (antibody, V domains shown)
VH: QSLEESGGRLVTPGTPLTLTCTASGFSLSNYSMNWVRQAPGKGLEWIGIINTYGSAYYASWAKGRFTISKTSTTVDLKMTSLTTEDTATYFCARDAGGSTVPWFFDVWGPGTLVTVSS
VL: AYDMTQTPASVEVAVGGTVTIKCQASQTISNYLAWYQQKPGQRPKLLIYDASKLASGVPSRFDGSGSGTEYTLTISGVGSADAATYYCQQGYADSNVDNVFGGGTEVVVK
notes: V regions on human Ig constant parts; also called AB27_62

IL-8, cross-linked by F(ab')2 fragment [abs. corr.] [1]: 1.47 abs. corr.
IL-8 [abs. corr.] [1]: 0.463 abs. corr.
ELISA [abs. corr.] [2]: 3.37 abs. corr.
Cellular binding assay [RFU] [3]: 397 RFU
B5: P018.S.03.A.D02 (antibody, V domains shown)
VH: B4 VH with L3V, S55T
VL: B4 VL with A42P, A68G, A102T
notes: V regions on human Ig constant parts; also called AB27_47

IL-8, cross-linked by F(ab')2 fragment [abs. corr.] [1]: 1.22 abs. corr.
IL-8 [abs. corr.] [1]: 0.566 abs. corr.
ELISA [abs. corr.] [2]: 3.59 abs. corr.
Cellular binding assay [RFU] [3]: 424 RFU
B7: P018.S.06.A.B03 (antibody, V domains shown)
VH: B6 VH with T62A
VL: B6 VL
notes: V regions on human Ig constant parts; also called AB27_99

IL-8, cross-linked by F(ab')2 fragment [abs. corr.] [1]: 1.67 abs. corr.
IL-8 [abs. corr.] [1]: 0.534 abs. corr.
ELISA [abs. corr.] [2]: 3.37 abs. corr.
Cellular binding assay [RFU] [3]: 407 RFU
B8: P018.S.08.A.D02 (antibody, V domains shown)
VH: QSVEESGGRLVTPGTPLTLTCTVSGFSLSHYHILWVRQAPGEGLKYIGITLNNGRIDYATWAKGRFTISKTSTTVDLEITSPTTEDTATYFCAKYFVSESYDLWGQGTLVTVSS
VL: TAVLTQTPSPVSAAVGSTVTINCQASQSVYNDNWLSWYQQKPGQPPKLLIYGASTLASGVPSRFKGSGSGTQFTLTISDVQSGDAATYYCLGGYKDNSDNVFGGGTEVVVK
notes: V regions on human Ig constant parts; also called AB27_138

IL-8, cross-linked by F(ab')2 fragment [abs. corr.] [1]: 1.34 abs. corr.
IL-8 [abs. corr.] [1]: 0.612 abs. corr.
ELISA [abs. corr.] [2]: 3.37 abs. corr.
Cellular binding assay [RFU] [3]: 346 RFU
B9: P018.S.07.A.B03 (antibody, V domains shown)
VH: QSVEESGGRLVTPGTPLTLTCTVSGFSLSSYAMGWVRQAPGKGLEWIGDIYGSGSTYYASWAKGRFTFSRTSTTVDLKMTSLTTEDTATYFCARSKGYNYNLWNLWGQGTLVTVSS
VL: DIVMTQTPSSVSAAVGGTVTINCQASQNIYTNLAWYQQKPGQRPKLLIYDASDLASGVPSRFSGSGSGTEYTLTISDLESADAATYYCQTYSYSGSSSANPFGGGTEVVVK
notes: V regions on human Ig constant parts; also called AB27_115

IL-8, cross-linked by F(ab')2 fragment [abs. corr.] [1]: 1.53 abs. corr.
IL-8 [abs. corr.] [1]: 0.246 abs. corr.
ELISA [abs. corr.] [2]: 3.37 abs. corr.
Cellular binding assay [RFU] [3]: 317 RFU
B10: P018.S.05.A.D04 (antibody, V domains shown)
VH: QSLEESGGDLVKPGASLTLTCTASEFDFNNNAMCWVRQAPGKGLEWIACIYIGNGGTWYASWAKGRFTISKSSSTTVTLQVTSLTAADTATYFCARGENIAYFILWGPGTLVTVSS
VL: DIVMTQTPASVSAAVGGTVTIKCQASQSINSWLSWYQQKPGQPPKLLIYKASTLASGVPSRFKGSGSGTEFTLTISDLESADAATYYCQGYYYYSSSNYASNAFGGGTEVVVK
notes: V regions on human Ig constant parts; also called AB27_87
